The data set concerns the target T1, Elk1 ETS domain (human, UniProt P19419 1-93).
T1 sequence: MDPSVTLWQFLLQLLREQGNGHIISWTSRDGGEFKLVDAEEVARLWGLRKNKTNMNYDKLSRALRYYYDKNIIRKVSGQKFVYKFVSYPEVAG
The data set can be described thus: SPR.

B1: E74 (dsDNA)
DNA 1: CTGAATAACCGGAAGTAACTCATC
DNA 2: GATGAGTTACTTCCGGTTATTCAG
The term Kd denotes the concentration at which binding is half-saturated. Low values mean tighter binding, high ones weaker binding. Molecule B1 came in with an equilibrium dissociation constant (Kd) of 0.02 ± 0.01 nM.

B2: SC1 (dsDNA)
DNA 1: CGGCCAAGCCGGAAGTGAGTGCC
DNA 2: GGCACTCACTTCCGGCTTGGCCG
For the molecule B2, the Kd turned out to be 0.06 ± 0.01 nM.

For the origin of these results see paper PMC8427768.
